Measurements published in article PMC7793260, “MreC and MreD balance the interaction between the elongasome proteins PBP2 and RodA” (PLoS Genetics, 2020).

Molecular target: T1, mKO-PBP2^S330C (E. coli, UniProt P0AD65 1-633, S330C)
T1 construct: made from pWA004 by mutagenesis PCR; source: E. coli LMC500, expressed from plasmid (15 uM IPTG), in fixed cells; not shown: mKO, N-terminal, kept
T1 sequence (looked up): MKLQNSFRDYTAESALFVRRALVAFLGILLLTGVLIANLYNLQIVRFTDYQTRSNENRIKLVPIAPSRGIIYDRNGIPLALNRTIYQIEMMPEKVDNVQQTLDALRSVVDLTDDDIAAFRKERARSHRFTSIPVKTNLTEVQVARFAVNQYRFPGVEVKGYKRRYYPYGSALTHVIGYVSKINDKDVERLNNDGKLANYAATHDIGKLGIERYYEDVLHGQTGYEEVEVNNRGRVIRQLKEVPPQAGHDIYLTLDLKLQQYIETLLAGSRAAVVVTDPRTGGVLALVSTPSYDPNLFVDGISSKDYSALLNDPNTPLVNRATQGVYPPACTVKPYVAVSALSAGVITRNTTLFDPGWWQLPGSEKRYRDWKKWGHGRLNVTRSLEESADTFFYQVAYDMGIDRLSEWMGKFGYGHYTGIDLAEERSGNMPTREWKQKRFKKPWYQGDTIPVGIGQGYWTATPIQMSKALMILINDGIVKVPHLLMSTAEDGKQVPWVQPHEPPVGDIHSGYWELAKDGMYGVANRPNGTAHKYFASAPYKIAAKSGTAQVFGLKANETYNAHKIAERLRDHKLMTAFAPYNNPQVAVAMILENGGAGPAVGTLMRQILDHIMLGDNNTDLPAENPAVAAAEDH
Assay: FRET or BRET; as the two-plasmid FRET, cells treated with mecillinam (2 mg/L) for two mass doublings
Details: partners not purified

EfA (acceptor FRET efficiency): 6.6%
B1: RodA (wild type), fused to mCherry or to mKO (enzyme, E. coli, UniProt P0ABG7 1-370, looked up)
chain: MTDNPNKKTFWDKVHLDPTMLLILLALLVYSALVIWSASGQDIGMMERKIGQIAMGLVIMVVMAQIPPRVYEGWAPYLYIICIILLVAVDAFGAISKGAQRWLDLGIVRFQPSEIAKIAVPLMVARFINRDVCPPSLKNTGIALVLIFMPTLLVAAQPDLGTSILVALSGLFVLFLSGLSWRLIGVAVVLVAAFIPILWFFLMHDYQRQRVMMLLDPESDPLGAGYHIIQSKIAIGSGGLRGKGWLHGTQSQLEFLPERHTDFIFAVLAEELGLVGILILLALYILLIMRGLWIAARAQTTFGRVMAGGLMLILFVYVFVNIGMVSGILPVVGVPLPLVSYGGSALIVLMAGFGIVMSIHTHRKMLSKSV
notes: RodA, peptidoglycan glycosyltransferase of the E. coli elongasome; wild-type rodA gene; mCh-RodA in all others; also called mCh-RodA; mKO-RodA; source: E. coli LMC500, expressed from plasmid (15 uM IPTG), in fixed cells; not shown: mCherry (acceptor construct, pSAV047-RodA) or mKO (donor construct, pXL56), N-terminal, kept
